{
  "source": "paper PMC11082178",
  "biological_target": "CRF01_AE Env consensus with redesigned HV loops, version 1 (shortest V1HV, without the 'IGNITD' motif), Env on pseudovirus (HIV-1 CRF01_AE (consensus))",
  "data": [
    {"substance": "10-1074 (antibody)", "values": [
      {"measurement": "neutralisation of Env pseudovirus in TZM-bl cells, IC50", "value": 0.544, "unit": "µg/mL"}
    ]}
  ]
}
